Measured values taken from patent US20260116946A1, “NOVEL CD200 FUSION PROTEINS” (DUCENTIS BIOTHERAPEUTICS LIMITED, priority 2022, published 2026).
Entries after “also recorded” stand apart in the source; their conditions may differ.

How the values were obtained:
U937-CD200R cells = test: Cell binding to U937-CD200R cells by flow cytometry; settings: 1, 4 and 24 hours at 37° C., anti-human IgG secondary, compared to DS-155
Experimental: U937 cells were re-suspended with a density of 0.1 million cells per test with 50 μL FACS buffer (1×PBS+2% FBS).
Treatment with CD200-Fc proteins (50 μL) was performed starting from 10 μg/mL with 3-fold dilutions up to 10 concentrations with FACS buffer and incubated for 1-hour, 4-hours and 24-hours at 37° C. At the end of each time point, cells were collected and washed. 10 μg/mL of anti-human secondary antibody was added and incubated for 30 minutes at 4° C. Cells were washed post incubation and stained to check viability (1 μL dye per million cells per mL 1×PBS) for 20 minutes at 4° C. Cells were washed and fixed with Fixation buffer (100 μL per test) at 4° C. for 20 minutes. Post incubation, cells were washed and the pellet was re-suspended in FACS buffer (100 μL per test) for data acquisition on the flow cytometer.
For the 24-hour time point, treatment with CD200-Fc protein was performed with cell culture media. Wash step=addition of 200 μL FACS buffer and centrifugation at 1400 RPM.
The binding of ARQ-234 to U937-CD200R cells was compared to a wild type control CD200-Fc (DS-155) at 1, 4 and 24 hrs at human physiological temperature (37° C.) and binding was detected using flow cytometry with an anti-human IgG antibody.

[1] = PK study in serum of cynomolgus monkeys; assay type: in vivo; settings: 5 mg/kg i.v. bolus; for AUC 0-t: t = 28 days
Experimental: 2 cynomolgus monkeys per group (one male, one female) were dosed at 5 mg/kg with an i.v. bolus of protein at time 0. Blood samples were taken for PK analysis at the following timepoints: pre-dose, 0.25 hr, 0.5 hr, 1 hr, 4 hr, 8 hr, 24 hr, day 3, day 5, day 7, day 10, day 12, day 14, day 21, day 28.
At least 0.8 mL blood samples were collected from a cephalic or saphenous vein at sampling time points from the two animals. For samples collected within the first hour of dosing, a ±1 minute deviation in sample collection time was acceptable. For the remaining time points, samples that were taken within 5% of the scheduled time are acceptable. All blood samples were collected into commercially available tubes containing coagulant. The tubes containing blood samples remained at room temperature for 30 minutes before centrifugation. The samples were centrifuged at 4° C. for 10 minutes at 1500×g within one hour of collection. About 400 μL serum per time point was collected post centrifugation. The samples were then quickly frozen over dry ice and kept at −60° C. or lower until transferred in dry ice for analysis. All samples were uniquely identified to indicate origin and collection time.
The concentrations of analyte in serum were determined using a bioanalytical ELISA method. 96-well ELISA plates were coated overnight at 4° C. with 1 μg/ml Goat anti-Human IgG in Carbonate-bicarbonate buffer. After wash and blocking, serial diluted plasma samples were added and then biotin labeled Goat anti-human IgG (0.0625 ug/mL) was used as detection antibody. HRP-Streptavidin and TMB substrate were used for colour development. The reaction was stopped after approximately 5-10 minutes through the addition of 2M HCl. The absorbance was read at 450 nm and 540 nm using a microplate spectrophotometer (SpectraMax® M5e). The OD value of the samples were substituted into the standard curve to obtain the plasma concentration. The detection limit of this ELISA method LLOQ for Fc+Fc is 1 ng/mL.
The serum concentration of ARQ-234 in monkeys was subjected to a non-compartmental pharmacokinetic analysis by using the Phoenix WinNonlin software (version 8.1, Pharsight, Mountain View, CA). The linear/log trapezoidal rule was applied in obtaining the PK parameters.

ARQ-234: mutated human CD200-Fc fusion protein: CD200 K130Y, I131Y directly fused to IgG4 Fc S228P, M428L, N434S
binding to U937-CD200R cells (U937-CD200R cells): superior binding of ARQ-234 to CD200R-expressing cells compared to DS-155; also recorded: more potent target engagement compared to DS-155 | average half-life in the two animals tested ([1]; serum): 15.44 days | Cl_obs ([1]; animal #3001 (M)): 7.45 mL/day/kg | MRTINF_obs ([1]; animal #3001 (M)): 17.3 days | Vss_obs ([1]; animal #3001 (M)): 0.129 L/kg | Cmax ([1]; animal #3001 (M), serum): 127 µg/mL | t1/2 ([1]; animal #3001 (M), serum): 12.4 days | AUC 0-t ([1]; animal #3001 (M)): 12927 µg·h/mL | Cl_obs ([1]; animal #3002 (F)): 6.56 mL/day/kg | MRTINF_obs ([1]; animal #3002 (F)): 25.3 days | Vss_obs ([1]; animal #3002 (F)): 0.166 L/kg | Cmax ([1]; animal #3002 (F), serum): 124 µg/mL | t1/2 (h) ([1]; animal #3002 (F), serum, footnote: half-life not accurate (AUC_%Extrap_obs >20% or Rsq_adjusted <0.9)): 443^ h | AUC 0-t ([1]; animal #3002 (F)): 12259 µg·h/mL
